From patent US20140120557A1

How the values were obtained:
[1] = target: 5C.C7 TCR (as measured by surface plasmon resonance) (mouse); assay: SPR
[2] = target: 5C.C7 TCR on 5C.C7 T cell blasts (mouse) (UniProt A2KF29); assay: cell-based or functional assay
[3] = target: 5C.C7 TCR on 5C.C7 T cell blasts (mouse) (UniProt A2KF29); assay: flow cytometry; 5C.C7 T cell blasts, one hour at room temperature after staining
[4] = target: 5C.C7 TCR on 5C.C7 T cell blasts (mouse) (UniProt A2KF29); assay: flow cytometry; 2 µM BioMCC(ASA)-I-Ek photocrosslinked to 5C.C7 T cell blasts, against about 38,000 TCRs per T cell
[5] = target: OT-1 TCR on naïve OT-1 T cells (mouse); assay: flow cytometry; naïve OT-1 T cells, pMHC 1 µM, UV photocrosslinking, PE-SAv

Chain of 102S-I-Ek (P04224 26-216): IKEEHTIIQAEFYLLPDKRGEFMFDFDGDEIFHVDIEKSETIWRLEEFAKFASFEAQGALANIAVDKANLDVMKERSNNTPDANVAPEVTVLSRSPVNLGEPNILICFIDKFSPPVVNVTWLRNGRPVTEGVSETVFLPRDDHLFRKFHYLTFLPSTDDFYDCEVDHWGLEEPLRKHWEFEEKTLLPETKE
Chain of PE-conjugated MCC-I-Ek tetramer (P04224 26-216): as above
Chain of MCC(Cy5)-I-Ek (P04224 26-216): as above
Chain of OVA(ASA)-Kb (P01901 22-305): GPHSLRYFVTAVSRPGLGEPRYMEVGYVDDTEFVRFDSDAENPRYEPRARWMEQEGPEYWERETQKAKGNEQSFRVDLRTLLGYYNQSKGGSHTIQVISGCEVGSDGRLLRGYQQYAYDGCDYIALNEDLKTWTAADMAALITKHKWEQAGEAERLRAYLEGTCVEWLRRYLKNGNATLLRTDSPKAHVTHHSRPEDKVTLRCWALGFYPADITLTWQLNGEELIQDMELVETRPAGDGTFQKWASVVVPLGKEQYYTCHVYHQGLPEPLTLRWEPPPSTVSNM

In the case of “102S-I-Ek (from UniProt P04224 26-216) (peptide-MHC)”, the Kd [1] is reported as 206 µM and the t1/2 [1] is reported as 0.83 s.
With “BioMCC(ASA)-I-Ek (from UniProt P04224 26-216) (peptide-MHC)” the duration of calcium flux on planar lipid bilayer with ICAM-1 and B7-1 [2] was over 10 min, the duration of calcium flux on planar lipid bilayer without ICAM-1 and B7-1 [2] was 3 min and the peak of fura-2 excitation ratio (340 nm/380 nm) above the baseline; 5100 or 7900 photocrosslinked pMHCs per cell [2] was 2.5 fold. For the same substance, the decrease of the staining signal after one hour at room temperature [3] was 5% and the percent of the total TCRs on a T cell surface permanently bound [4] was 16%.
Substance “MCC(Cy5)-I-Ek (from UniProt P04224 26-216) (peptide-MHC)” has a peak of fura-2 excitation ratio (340 nm/380 nm) above the baseline; 6100 standard agonist pMHCs per cell [2] of 2.5 fold.
For “OVA(ASA)-Kb (from UniProt P01901 22-305) (peptide-MHC)”, the fold efficiency of staining against the null SIAAFASL(ASA)-Kb monomer [5] was over 10 fold.
Substance “PE-conjugated MCC-I-Ek tetramer (from UniProt P04224 26-216) (peptide-MHC)” has a decrease of the staining signal after one hour at room temperature [3] of 50%.
